Measurements reported in patent publication EP2289541A1.
Blank lines part the entries; values can stand above or below the substance they belong to.

Biological target: low density lipoprotein receptor-related protein (LRP)
Test: cell-based or functional assay
[1] = scale: % of passage versus filter for alteplase alone

% of abluminal alteplase (alteplase transport across in vitro BBB, zymography assay; alteplase 0.3 µM and DSPAalpha1 0.3 µM) (% of abluminal alteplase alone): 46.6 | alteplase (% of passage versus filter) (alteplase translocation across in vitro BBB, spectrozyme assay; alteplase 0.3 µM and DSPAalpha1 0.3 µM) [1]: 67
Substance: DSPAα1 (Desmoteplase) (from UniProt P98119 37-477) (enzyme)

% of abluminal alteplase (alteplase transport across in vitro BBB, zymography assay; alteplase 0.3 µM and DSPAalpha 2 0.3 µM) (% of abluminal alteplase alone): 25.1 | alteplase (% of passage versus filter) (alteplase translocation across in vitro BBB, spectrozyme assay; alteplase 0.3 µM and DSPAalpha2 0.3 µM) [1]: 61.9
Substance: DSPAα2 (from UniProt P15638 37-477) (enzyme)

% of abluminal alteplase (alteplase transport across in vitro BBB, zymography assay; alteplase 0.3 µM and Reteplase 0.3 µM) (% of abluminal alteplase alone): 51.6
Substance: Reteplase (from UniProt P00750 36-562) (enzyme)
